Results from patent US20050239710.

Molecular target: T1, 19-mer (SEQ ID NO:11) cleavage domain peptide
T1 chain: PRCGNPDVANYNFFPRKPK

B1: Proenzyme pro-MMP-9 (protein)
chain: APRQRQSTLVLFPGDLRTNLTDRQLAEEYLYRYGYTRVAEMRGESKSLGPALLLLQKQLSLPETGELDSATLKAMRTPRCGVPDLGRFQTFEGDLKWHHHNITYWIQNYSEDLPRAVIDDAFARAFALWSAVTPLTFTRVYSRDADIVIQFGVAEHGDGYPFDGKDGLLAHAFPPGPGIQGDAHFDDDELWSLGKGVVVPTRFGNADGAACHFPFIFEGRSYSACTTDGRSDGLPWCSTTANYDTDDRFGFCPSERLYTQDGNADGKPCQFPFIFQGQSYSACTTDGRSDGYRWCATTANYDRDKLFGFCPTRADSTVMGGNSAGELCVFPFTFLGKEYSTCTSEGRGDGRLWCATTSNFDSDKKWGFCPDQGYSLFLVAAHEFGHALGLDHSSVPEALMYPMYRFTEGPPLHKDDVNGIRHLYGPRPEPEPRPPTTTTPQPTAPPTVCPTGPPTVHPSERPTAGPTGPPSAGPTGPPTAGPSTATTVPLSPVDDACNVNIFDAIAEIGNQLYLFKDGKYWRFSEGRGSRPQGPFLIADKWPALPRKLDSVFEERLSKKLFFFSGRQVWVYTGASVLGPRRLDKLGLGADVAQVTGALRSGRGKMLLFSGRRLWRFDVKAQMVDPRSASEVDRMFPGVPLDTHDVFQYREKAYFCQDRFYWRVSSRSELNQVDQVGYVTYDILQCPED
conversion of pro-MMP-9 into prodomain and active enzyme by stromilysin (HPLC splicing assay): Splicing can be inhibited in a dose dependent manner with micromolar 19-mer (SEQ ID NO:11) peptide.
